{"source": "patent US11254722B2", "about": "“Recombinant proteins and uses thereof” (ACADEMIA SINICA, priority 2017, dated 2022)", "key": {"hep3B cells [1]": {"system": "hep3B cells", "assay": "hep3B proliferation assay", "type": "cell-based, human", "details": "for EC50: FIG. 11C, read-out: ECK for FBS-induced proliferation; for IC50: Table 10", "summary_of_the_method": "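Cells seeded at 1,000 to 6,000 per well in DMEM/F12 with 0.2% BSA and 10 ug/ml transferrin. Inhibitors added 16-20 h after plating; IGF-1 or other growth factors at plating or 16-20 h later. After 3 to 4 days, growth read by Alamar blue fluorescence at 544/590 nm after 4 to 6 h.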"}, "IGF-1": {"biological_target": "T1, IGF-1 (Homo sapiens, UniProt P05019)", "T1 construct": "purchased R&D Sciences or SinoBiologicals", "T1 sequence (P05019 49-118 limits assumed)": "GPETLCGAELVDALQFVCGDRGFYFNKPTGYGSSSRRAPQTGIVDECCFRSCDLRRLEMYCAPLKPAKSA", "assay": "Biacore binding to IGF-1", "details": "experiment 4-79", "experimental": "Biacore binding was performed at David Myszka's laboratory at the University of Utah or at the Genomic Research Center at Academia Sinica. Surfaces of binding protein chimera were made via chemical immobilization on a CM4 chip using standard amine coupling chemistry. […] Excess surface carboxyl activated sites on all four flow cells was blocked using the doubly positively charged species ethylenediamine. Binding experiments (but not immobilizations) in HBS-P (10 mM HEPES pH 7.4, 150 mM NaCl, 0.05% P20), The HBS-P was supplemented with BSA at 0.2 mg/mL, or HBS-P was supplemented with 500 mM NaCl (650 mM NaCl, final concentration). Analytes were also reconstituted in the corresponding buffer. All experiments were performed at 25° C. 1/150 dilutions of phosphoric acid were used to regenerate IGFBP3-Fc surfaces and a sequence of 3 M MgCl2 followed by 5 M GuCl was used to regenerate surfaces immobilized with growth factor. Dissociation constants reported below used immobilized binding protein unless noted. Differences between binding constants may be expected between growth factor immobilization and chimera immobilization."}, "[2]": {"details": "estimated; reference 26; cited from earlier work"}, "PC-91R": {"system": "PC-91R", "assay": "PC-91R gefitinib-resistant cell proliferation", "type": "cell-based", "details": "FIG. 24A, FIG. 24B", "experimental": "(§1) For the proliferation assay, cells except for HUVEC were seeded at a density of 1,000 to 6,000 in 96 wells in an assay buffer of DMEM/F12 plus 0.2% BSA and 10 ug/ml transferrin. Chemical inhibitors were added after 16-20 hours after plating; IGF-1 or other growth factors or test chimeras in assay buffer were added at the time of plating or 16-20 hours after plating. 5,000 HUVEC ells were plated in poly-L-lysine coated 96 wells in M199 with 1%/FBS and HEPES. After 3 to 4 days of culture, growth was determined by incubating cells with Alamar blue for 4 to 6 hours and then the fluorescence (RFU) at 544/590 nm was read. For long term proliferation assays, cells were plated in the growth media with 5% or 10% FBS at densities of 500 to 10,000 cells per cm^2 growth area and grown for 7 to 21 days. Inhibitors and effectors were added 1-4 days after plating. Cells were exposed to cisplatin or gemcitabine for two days. Medium was renewed twice weekly. At completion, cells were fixed and then stained with Giemsa.\nOne mechanism of EGFR TKI resistance is the transition from an epithelial to mesenchymal phenotype (16). […] Consequently, a combination of chimera D3 and TKI may limit the resistance caused by epithelial to mesenchymal transition."}, "HT29 cells": {"system": "HT29 cells", "assay": "HT29 proliferation assay", "type": "cell-based, human", "experimental": "(§2) MCF-7 cells (a breast cancer cell line) were maintained in MEM (GIBCO) plus insulin and NEAA and 10% FBS (Hyclone).\nas §1\nThe combination of drug (erlotinib and vemurafenib in hep3b and HT29 cells, respectively) and chimera can be synergistic; so, in addition to enhancing the inhibition, the chimera addition may also lower drug concentration requirements and reduce side effects."}, "Hep3B cells [3]": {"system": "Hep3B cells", "assay": "Hep3B subcutaneous tumors in NOD-Scid mice", "type": "in vivo", "experimental": "Hep3B cells were infected with GFP-luciferase lentivirus. The cells with highest GFP expression were selected by FACS sort, and the resulting population was expanded. Two million hep3B cells mixed with Matrigel were injected subcutaneously in NOD-Scid mice, and measurable signal was obtained after 7 days. Treatment began at 8 days after injection (day 0). Luciferase was measured as per the standard Xenogen protocol. IGFBP3.Fc D3 (i.e., the 3(del3)3 chimera) at 20 mg/kg was injected twice weekly; saline was injected in the control group. Tumor growth was measured twice weekly by measuring the luminescence. […]"}, "PC-9 tumors": {"system": "PC-9 tumors", "assay": "PC-9 subcutaneous tumors in mice, low dose erlotinib", "type": "in vivo", "details": "erlotinib 25 mg/kg 3 times per week; FIG. 27", "experimental": "(§3) 5×10exp6 PC-9 non-small cell lung cancer cells were injected subcutaneously in Nod scid gamma (NSG) mice. […] Erlotinib in 6% captisol was dosed orally daily at 25 mg/kg; IGFBP3Fc (3(del3)3) was dosed intraperitoneally at 25 mg/kg three times per week; control animals were administered vehicle. Dosing was started on day 11; erlotinib and erlotinib plus D3 was discontinued on day 19; D3 injections were discontinued on day 22.\nSubcutaneous PC-9 tumors were generated and measured as above. Chimera D3 was dosed as above; erlotinib was dosed at 25 mg/kg 3 times per week in order to examine the effect of the chimera D3 on the tumor growth with suboptimal erlotinib dosing. The treatment started on day 8 and ended on day 22."}, "A431": {"system": "A431", "assay": "A431 survival and growth with TKI", "type": "cell-based, human", "details": "FIG. 21", "experimental": "as §2, §1\n(§4) The addition of chimera D3 to gefitinib reduced this number by about 100-fold."}, "[4]": {"system": "A549 lung carcinoma cells", "assay": "A549 proliferation assay", "type": "cell-based", "experimental": "as §2, §1\nSince the A549 cell line contains a KRAS mutation, it is expected that A549 cells be resistant to TKIs such as AZD9291 and erlotinib. MEK inhibitors such as trametinib were designed to target the RAS/MEK/ERK pathway. […]"}, "PC-9 cells": {"system": "PC-9 cells", "assay": "PC-9 proliferation and clonal density assays", "type": "cell-based, human", "experimental": "as §2, §1\nProliferation assays at clonal densities allows measurement of these DTPs. PC-9 cells are a human non-small cell lung cancer line with a EGFR deletion with high sensitivity to EGFR TKI's (24)."}, "[5]": {"system": "PC-9 non-small cell lung cancer cells", "assay": "PC-9 subcutaneous tumors in NSG mice, daily erlotinib", "type": "in vivo", "details": "chimera D3 plus erlotinib", "experimental": "as §3"}, "HUH7": {"system": "HUH7", "assay": "HUH7 survival and growth with TKI", "type": "cell-based, human", "details": "FIG. 21", "experimental": "as §2, §1, §4"}, "[6]": {"system": "H1975-T790M gefitinib-resistant", "assay": "H1975 survival and growth with TKI", "type": "cell-based, human", "details": "FIG. 21", "experimental": "as §2, §1, §4"}, "[7]": {"details": "number of tumors, increase in the tumor size"}, "[8]": {"details": "number of tumors, no measurable tumor"}, "[9]": {"details": "number of tumors, partial regression means a 20% or greater decrease in the tumor size"}}, "note": "Read-outs that look alike come from different tables or passages of the source."}
{"molecule": "IGFBP3: insulin-like growth factor-binding protein-3, wild-type (SEQ ID NO: 1) [reference compound]", "values": [{"measurement": "EC50", "setting": "hep3B cells [1]; hep3B", "result": 200, "unit": "nM"}, {"measurement": "Kd", "setting": "IGF-1", "result": 0.363, "unit": "nM"}, {"measurement": "serum half-life", "setting": "[2]", "result": 25, "unit": "min"}]}
{"molecule": "chimera D3: IGFBP3 with IGFBP3 linker deletion 3-Fc, SEQ ID NO: 12 (protein) MSEVPVARVWLVLLLLTVQVGVTAGGASSAGLGPVVRCEPCDARALAQCAPPPAVCAELVREPGCGCCLTCALSEGQPCGIYTERCGSGLRCQPSPDEARPLQALLDGRGLCVNASAVSRPAPPAPGNASESEEDRSAGSVESPSVSSTHRVSDPKFHPKGHAKVDYESQSTDTQNFSSESKRETEYGPCRREMEDTLNHLKFLNVLSPRGVHIPNCDKKGFYKKKQCRPSKGRKRGFCWCVDKYGQPLPGYTTKGKEDVHCYSMQSKVECPPCPAPPVAGPSVFLFPPKPKDQLMISRTPEVTCVVVDVSHEDPEVKFNWYVDGVEVHNAKTKPREEQYNSTYRVVSVLTVLHQDWLNGKEYKCKVSNKGLPSSIEKTISKAKGQPREPQVYTLPPSREEMTKNQVSLTCLVKGFYPSDIAVEWESNGQPENNYKTTPPVLDSDGSFFLYSKLTVDKSRWQQGNVFSCSVMHEGLHNHYTQKSLSLSPGK", "values": [{"measurement": "sensitivity of gefitinib-resistant PC-91R cells to gefitinib", "setting": "PC-91R", "result": "restored the cancer cells' sensitivity to gefitinib"}, {"measurement": "inhibition with vemurafenib in HT29 cells", "setting": "HT29 cells; FIG. 17A isobologram, FIG. 17B", "result": "synergistic inhibition"}, {"measurement": "cancer cell survival and growth on addition to TKI", "setting": "HT29 cells; HT29, FIG. 21", "result": "further inhibited"}, {"measurement": "hep3B tumor growth compared with control mice", "setting": "Hep3B cells [3]; 20 mg/kg twice weekly, luminescence, FIG. 25", "result": "grew more slowly"}, {"measurement": "T/C (tumor volume treated/control) ratio", "setting": "Hep3B cells [3]; D3 alone, day 25", "result": 63, "unit": "%"}, {"measurement": "tumor growth inhibition", "setting": "Hep3B cells [3]; D3 alone, day 25, p value of 0.0025", "result": 37, "unit": "%"}, {"measurement": "Progression, Day 12", "setting": "Hep3B cells [3]; [7]", "result": 5}, {"measurement": "Progression, Day 22", "setting": "Hep3B cells [3]; [7]", "result": 4}, {"measurement": "Complete regression, Day 12", "setting": "Hep3B cells [3]; [8]", "result": 2}, {"measurement": "Complete regression, Day 22", "setting": "Hep3B cells [3]; [8]", "result": 3}, {"measurement": "Partial regression, Day 12", "setting": "Hep3B cells [3]; [9]", "result": 1}, {"measurement": "Partial regression, Day 22", "setting": "Hep3B cells [3]; [9]", "result": 1}, {"measurement": "hep3B proliferation on co-treatment with doxorubicin", "setting": "hep3B cells [1]; 0.01 uM doxorubicin plus chimera D3", "result": "reduced proliferation even further"}, {"measurement": "hep3B proliferation on co-treatment with erlotinib, sorafenib or afatinib", "setting": "hep3B cells [1]; 2 uM erlotinib, 2 uM sorafenib, or 0.15 uM afatinib, FIG. 16B", "result": "further reduced cell proliferation"}, {"measurement": "proliferation of hep3B cells treated with chimera alone vs no inhibitor", "setting": "hep3B cells [1]; FIG. 16B", "result": "reduced significantly"}, {"measurement": "IC50", "setting": "hep3B cells [1]; read-out: IC50, FBS-stimulated proliferation of hep3B cells", "result": 105, "unit": "nM"}, {"measurement": "IC50", "setting": "hep3B cells [1]; read-out: IC50, HGF-stimulated proliferation of hep3B cells", "result": 47, "unit": "nM"}, {"measurement": "IC50", "setting": "hep3B cells [1]; read-out: IC50, IGF1-stimulated proliferation of hep3B cells", "result": 28, "unit": "nM"}, {"measurement": "IC50", "setting": "hep3B cells [1]; read-out: IC50, bFGF-stimulated proliferation of hep3B cells", "result": 69, "unit": "nM"}, {"measurement": "IC50", "setting": "hep3B cells [1]; read-out: IC50, nrg-stimulated proliferation of hep3B cells", "result": 78, "unit": "nM"}, {"measurement": "bFGF, IGF1, bFGF/IGF1, HGF and HGF/IGF rescue of erlotinib-treated hep3b cells", "setting": "hep3B cells [1]; clonal proliferation assay, FIG. 22B", "result": "inhibited"}, {"measurement": "inhibition of hep3B cells treated with erlotinib", "setting": "hep3B cells [1]; combination with erlotinib, FIG. 15, FIG. 16A", "result": "synergistically inhibited"}, {"measurement": "EC50", "setting": "hep3B cells [1]; hep3B", "result": 85, "unit": "nM"}, {"measurement": "cancer cell survival and growth on addition to TKI", "setting": "hep3B cells [1]; hep3B, FIG. 21", "result": "further inhibited"}, {"measurement": "tumor inhibition on addition of chimera D3 to erlotinib", "setting": "PC-9 tumors", "result": "clearly improved the tumor inhibition"}, {"measurement": "cancer cell survival and growth on addition to TKI", "setting": "A431", "result": "further inhibited"}, {"measurement": "A549 growth on addition to cisplatin", "setting": "[4]; FIG. 18B", "result": "further inhibited"}, {"measurement": "growth of A549 lung carcinoma cells", "setting": "[4]; alone, or in combination with the TK (AZD9291, trametinib), FIG. 18A", "result": "reduced the growth"}, {"measurement": "decrease of the IC50 of gefitinib", "setting": "PC-9 cells; 200 nM D3Fc, PC-9, four-day assay, FIG. 19A", "result": 70, "unit": "fold"}, {"measurement": "bFGF and HGF rescue of osimertinib-treated PC-9 cells", "setting": "PC-9 cells; FIG. 23", "result": "inhibited such rescue"}, {"measurement": "clonal density assay with gefitinib", "setting": "PC-9 cells; PC-9, FIG. 19B", "result": "decreased the IC50 and reduced surviving cells"}, {"measurement": "IGF1-induced cell survival under gefitinib", "setting": "PC-9 cells; PC-9, FIG. 20", "result": "dramatically reduced"}, {"measurement": "cell growth with bFGF under gefitinib", "setting": "PC-9 cells; PC-9, FIG. 20", "result": "substantially reduced cell growth"}, {"measurement": "cancer cell survival and growth on addition to TKI", "setting": "PC-9 cells; PC-9, FIG. 21", "result": "further inhibited"}, {"measurement": "reduction of the number of PC-9 cells surviving gefitinib", "setting": "PC-9 cells; addition of chimera D3 to gefitinib", "result": "about 100 fold"}, {"measurement": "tumor growth after erlotinib treatment was stopped on day 19, compared to the erlotinib group", "setting": "[5]; FIG. 26", "result": "delayed tumor growth"}, {"measurement": "tumor volume of treated to control (T/C)", "setting": "[5]; day 20", "result": 32, "unit": "%"}, {"measurement": "cancer cell survival and growth on addition to TKI", "setting": "HUH7", "result": "further inhibited"}, {"measurement": "cancer cell survival and growth on addition to TKI", "setting": "[6]", "result": "further inhibited"}]}
